Source: paper PMC2045701, “Confocal fluorescence resonance energy transfer microscopy study of protein-protein interactions of lens crystallins in living cells” (Molecular Vision, 2007)

Target: GFP-αA-crystallin (UniProt P02489 2-173)
Assay: cell-based or functional assay

GFP-αA-crystallin, sequence (P02489 2-173): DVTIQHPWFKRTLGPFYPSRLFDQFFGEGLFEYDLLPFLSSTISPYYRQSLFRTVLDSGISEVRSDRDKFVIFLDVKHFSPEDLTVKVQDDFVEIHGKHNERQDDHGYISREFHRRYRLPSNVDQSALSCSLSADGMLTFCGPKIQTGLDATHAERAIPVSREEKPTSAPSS

percentage of HeLa cells with protein aggregates, cotransfection of GFP-αA- and RED-αB-crystallin against RED-αB-crystallin alone (confocal microscopy): > 4 fold
B1: RED-αB-crystallin (natural protein, UniProt P02511 2-175, looked up)
chain: DIAIHHPWIRRPFFPFHSPSRLFDQFFGEHLLESDLFPTSTSLSPFYLRPPSFLRAPSWFDTGLSEMRLEKDRFSVNLDVKHFSPEELKVKVLGDVIEVHGKHEERQDEHGFISREFHRKYRIPADVDPLTITSSLSSDGVLTVNGPRKQVSGPERTIPITREEKPAVTAAPKK
